Test results taken from patent US20250270296A1 (ACADEMIA SINICA, published 2025).
Positions count from the first letter of the chain named.

Columns and labels:
[1] = biological target: SARS-CoV-2 S protein, full length, wild type (on pseudovirus, authentic virus hCoV-19/Taiwan/4/2020 (SARS-CoV-2, UniProt P0DTC2 14-1273)); experiment: cell-based or functional assay
[2] = biological target: SARS-COV-2 RBD-His protein (SARS-CoV-2, UniProt P0DTC2 319-541)

B1: RBD-chAb-1 (antibody, V domains shown)
VH: EVQLQQSGPQLVRPGASMKISCKASGYSFTTYWMHWVKQRPGQGLQWIGMIDPSDSETRLNQKFKDKATLTVDKSSSTAYMQLSSPTSEDSAVYYCARDFDYDRTMDYWGQGTSVTVSS
VL: DIVMSQSPSSLAVSVGEKVTMSCKSSQSLLFSSSQKNYLAWYQQKAGQSPKLLIFWASTRESGVPDRFTGSGSGTDFTLTISSVKAEDLAIYYCKQYYKYPLTFGAGTKLDIK
**Q.** How did the PRNT50 [1] turn out when B1 was run?
**A.** < 36 ng/mL

B2: RBD-chAb-15 (antibody, V domains shown)
VH: EVQLEESGPGLVQPSQSLSITCTVSDFSLTTYGVHWVRQSPGKGLEWLGVIWSGGSTDYNAAFISRLSISKDNSKSQVFFKMNSLQTNDTAIYYCARMGDGYYVGAMDYWGQGTSVTVSS
VL: DIQLTQSPAILSVSPGERVSFSCRASQSIGTSIHWYQQRTNGSPRHLIKYASESISGIPSRFSGSGSGTDFTLTINGVESEDIADYYCQQGHNWPLTFGAGTKLDIK
**Q.** B2 was tested. Which PRNT50 [1] did it give?
**A.** < 36 ng/mL

B3: RBD-chAb-45 (antibody, V domains shown)
VH: EVQLQQSGPELVKPGASVKISCKTSGYTFTEYTIYWVKQSLGKSLEWIGGNNPNNDDTTYKQFFKGKATLTVDKSSSTAYMELRSLTSEDSAVYYCARDGYPYYYALDFWGQGTSVTVSS
VL: DILMTQSQKFMSTSVGDRVSVTCKSSQNVGTNVAWYQQKPGQSPKALIYSASYRYSGVPDHFTGSGSGTDFTLTISNVQSADLAEYFCQQYNNYPWTFGGGTKLDIK
**Q.** B3 was tested. Which Kd [2] did it give?
**A.** 0.282 nM

**Q.** And the koff [2]?
**A.** 0.000282 s⁻¹

**Q.** And the kon [2]?
**A.** 997000 M⁻¹ s⁻¹

**Q.** And the “pseudovirus neutralization assay IC50” value [1]?
**A.** 2.3 ng/mL

B4: RBD-chAb-51 (antibody, V domains shown)
VH: B3 VH with V18A, I34M, L41H, N51I, D56G, K61N, F63T, Y103F, F109Y, T114I
VL: DIVMTQSQKFMSTSVGDRVSVTCKARQIVGTNVAWYQQKPGQSPKALIYSASYRYSGVPDRFTGSGSGTDFTLTITNVHSEDLAEFFCHQYNSYPWTFGGGTKLDIK
**Q.** How did the “pseudovirus neutralization assay IC50” value [1] turn out when B4 was run?
**A.** 0.98 ng/mL

B5: RBD-chAb-28 (antibody, V domains shown)
VH: QVQLQQPGTELVMPGASVKMSCKASGYTFTDYYLHWMKQRPGQGLEWIGAIDSSDSYTDYNQNFKGKATLTVDESSSTAYMHLSSLTSEDSAVYYCARGKDAYDRRPWFAYWGQGTLVTVSA
VL: DIQMTQTTSSLSASLGDRVTISCSASQGIRYYLNWYQQKPDGTVKLLIYYTSNLHSGVPSRFSGSGSGTDYSLTISNLEPEDIATYYCQQYNKLPYTFGGGTKLDIK
**Q.** How did the “pseudovirus neutralization assay IC50” value [1] turn out when B5 was run?
**A.** 8.75 ng/mL
